Source: CN116723860A (NOVARTIS AG, dated 2023)

B1: mAb2 (antibody, human IgG1, kappa, V domains shown)
VH: QVQLVESGGGVVQPGRSLRLSCAASGFTFSVYGMNWVRQAPGKGLEWVAIIWYDGDNQYYADSVKGRFTISRDNSKNTLYLQMNGLRAEDTAVYYCARDLRTGPFDYWGQGTLVTVSS
VL: EIVLTQSPDFQSVTPKEKVTITCRASQSIGSSLHWYQQKPDQSPKLLIKYASQSFSGVPSRFSGSGSGTDFTLTINSLEAEDAAAYYCHQSSSLPFTFGPGTKVDIKR
notes: Human anti-IL-1β antibody, bivalent; also called IL-1β抗体; 卡那吉努单抗 (canakinumab)
B2: mAb1 (antibody, human IgG1, lambda, L234A L235A, V domains shown)
VH: EVQLVQSGAEVKKPGSSVKVSCKASGGTFKSYAISWVRQAPGQGLEWMGNIIPMTGQTYYAQKFQGRVTITADESTSTAYMELSSLRSEDTAVYYCARAAYHPLVFDNWGQGTLVTVSS
VL: DIVLTQPPSVSGAPGQRVTISCSGSSSNIGNHYVNWYQQLPGTAPKLLIYRNNHRPSGVPDRFSGSKSGTSASLAITGLQSEDEADYYCQSWDYSGFSTVFGGGTKLTVLG
notes: Human anti-IL-18 antibody, bivalent; also called IL-18抗体

Legend:
重组人IL-1β = target: T1, 重组人IL-1β (human, UniProt P01584 117-269); assay: solution equilibrium titration (SET), single target binding assay, mean KD
T1 construct: also called huIL-1β; IL-1b

重组人IL-18 = target: T2, 重组人IL-18 (human, UniProt Q14116 37-193); assay: SET, single target binding assay
T2 construct: also called huIL-18; BTP 25829

| Binder | Kd (重组人IL-1β) [pM] | binding result (重组人IL-18) |
| --- | --- | --- |
| B1 | 0.6 |  |
| B2 |  | binds |
